Laboratory results: patent US20240376185A1 (SMIVET B V, published 2024)

Key:
[1] = biological target: T1, tetanus neurotoxin (TeNT), authentic tetanus holotoxin (Clostridium tetani, UniProt P04958 2-1315); assay: cell-based or functional assay
[2] = biological target: T1, tetanus neurotoxin (TeNT), authentic …
[3] = biological target: Tetanus neurotoxin (TeNT), authentic tetanus holotoxin (Clostridium tetani, UniProt P04958 2-1315)
[4] = biological target: tetanus neurotoxin (TeNT), authentic tetanus holotoxin (Clostridium tetani, UniProt P04958 2-1315); remark: listed apart in the source

Row | Binder | Endpoint dilution factor [1] | SDA concentration providing full protection [1] [nM] | Kd [2] [nM] | koff [2] [s⁻¹] | kon [2] [M⁻¹ s⁻¹] | IC50 [4] [µg/mL] | further results
1 | SVT16-L123Q-GS2-SVG13M4-H6 (bispecific antibody) QVQLQESGGGSVQAGDSLRLSCAASGRTISNYAMGWFRQAPGKQREFVAAISRSDNTYYTDSVKGRFTISRDNAKNTLYLQMNSLKPEETAVYYCAADPNLMYESKWKYRALEAWGQGTQVTVSSGGGGSGGGSEVQLVESGGGLVQPGGSLRLSCEASGFTFDDYGMSWVRQAPGKGLEWVSSLTPNGGSTYYADSVKGRFTISRDNAKNTLYLQMNSLKPEDTALYYCAKNSYYGAMDYWGQGTQVTVSSHHHHHH | < 1 | > 1000 | 0.227 | 0.000184 | 665000 |  | 
2 | SVT06-GS3-SVT16-L123Q-GS2-SVA12M2-H6 (bispecific antibody) QVQLQESGGGSVQAGGSLRLSCTASELSYDDYTIAWFRRAAGEGRVEDGEGVASITKSYDRAYDNKINYGHSVKGRFTISRDNAKNTVYLQMTDLLPSDTAVYYCALDITPPGGVGASLTEGFLFDYWGQGTQVTVSSGGGGSGGGGSGGGGSQVQLQESGGGSVQAGDSLRLSCAASGRTISNYAMGWFRQAPGKQREFVAAISRSDNTYYTDSVKGRFTISRDNAKNTLYLQMNSLKPEETAVYYCAADPNLMYESKWKYRALEAWGQGTQVTVSSGGGGSGGGSEVQLVESGGGLVQAGGSLRLSCAASGRTFSYYPMAWFRQAPGQEREFVAAIIGADTTYYADSLKGRFTISRDNAKNMVYLQMNSLKPEDTAVYYCAARNTYWSDVYYREGQYTNWGQGTQVTVSSHHHHHH | > 32 | 3.1 | 0.0133 | 1.32e-05 | 989000 |  | Potency IU/mg [1]: > 93.1 IU/mg
3 | SVT16-L123Q-GS2-SVA12M2-H6 (bispecific antibody) QVQLQESGGGSVQAGDSLRLSCAASGRTISNYAMGWFRQAPGKQREFVAAISRSDNTYYTDSVKGRFTISRDNAKNTLYLQMNSLKPEETAVYYCAADPNLMYESKWKYRALEAWGQGTQVTVSSGGGGSGGGSEVQLVESGGGLVQAGGSLRLSCAASGRTFSYYPMAWFRQAPGQEREFVAAIIGADTTYYADSLKGRFTISRDNAKNMVYLQMNSLKPEDTAVYYCAARNTYWSDVYYREGQYTNWGQGTQVTVSSHHHHHH |  |  | 0.224 | 0.000199 | 886000 |  | 
4 | SVT06-SVT16-L123Q-GS2-SVG13M4-H6 (bispecific antibody) QVQLQESGGGSVQAGGSLRLSCTASELSYDDYTIAWFRRAAGEGRVEDGEGVASITKSYDRAYDNKINYGHSVKGRFTISRDNAKNTVYLQMTDLLPSDTAVYYCALDITPPGGVGASLTEGFLFDYWGQGTQVTVSSQVQLQESGGGSVQAGDSLRLSCAASGRTISNYAMGWFRQAPGKQREFVAAISRSDNTYYTDSVKGRFTISRDNAKNTLYLQMNSLKPEETAVYYCAADPNLMYESKWKYRALEAWGQGTQVTVSSGGGGSGGGSEVQLVESGGGLVQPGGSLRLSCEASGFTFDDYGMSWVRQAPGKGLEWVSSLTPNGGSTYYADSVKGRFTISRDNAKNTLYLQMNSLKPEDTALYYCAKNSYYGAMDYWGQGTQVTVSSHHHHHH |  |  |  |  |  |  | Kd [3]: 0.0159 nM; koff [3]: 6.61e-06 s⁻¹; kon [3]: 417000 M⁻¹ s⁻¹
5 | SVT20L-L123Q (VHH) VHH: QVQLQQSGGGLVQAGGSLRLSCAASGRTMSSYAMGWFRQAPGKQREFVAAISRSGGNTYYTDSVKGRFTISRDNAKNTLYLQMNSLKPEETAVYYCAADPNLMYESKWKYRALEAWGQGTQVTVSS |  |  |  |  |  | 0.038 | 
6 | SVT34L-L123Q (VHH) VHH: QVQLQESGGGLVQPGGSLRLSCAASGRTISSYAMGWFRQAPGKQREFVAAISRSGGNTYYTDSVKGRFIISRDNAKNTLYLQMNNLKPEETAVYYCAADPNLMYESKWKYRALEAWGQGTQVTVSS |  |  |  |  |  | 0.034 | 
